This note sets out measurements from US20230235029A1 (INTEGRATED BIOTHERAPEUTICS, published 2023).

For assay [1], the target named is RAVV GP on rVSV pseudotype (VSV-MARV RAVV GP) (Ravn virus) (UniProt Q1PDC7).
The target in assay [2] is Marburg virus Angola GP on rVSV pseudotype (Marburg virus, Angola strain) (UniProt Q1PD50).
In assay [3] the target is Marburg virus Musoke GP on rVSV pseudotype (VSV-MARV Musoke GP) (Marburg virus, Musoke strain) (UniProt P35253).
Assay [4] concerns the target T1, Marburg virus Angola GP on rVSV pseudotype (Marburg virus, Angola strain, UniProt Q1PD50 19-681).
T1 sequence: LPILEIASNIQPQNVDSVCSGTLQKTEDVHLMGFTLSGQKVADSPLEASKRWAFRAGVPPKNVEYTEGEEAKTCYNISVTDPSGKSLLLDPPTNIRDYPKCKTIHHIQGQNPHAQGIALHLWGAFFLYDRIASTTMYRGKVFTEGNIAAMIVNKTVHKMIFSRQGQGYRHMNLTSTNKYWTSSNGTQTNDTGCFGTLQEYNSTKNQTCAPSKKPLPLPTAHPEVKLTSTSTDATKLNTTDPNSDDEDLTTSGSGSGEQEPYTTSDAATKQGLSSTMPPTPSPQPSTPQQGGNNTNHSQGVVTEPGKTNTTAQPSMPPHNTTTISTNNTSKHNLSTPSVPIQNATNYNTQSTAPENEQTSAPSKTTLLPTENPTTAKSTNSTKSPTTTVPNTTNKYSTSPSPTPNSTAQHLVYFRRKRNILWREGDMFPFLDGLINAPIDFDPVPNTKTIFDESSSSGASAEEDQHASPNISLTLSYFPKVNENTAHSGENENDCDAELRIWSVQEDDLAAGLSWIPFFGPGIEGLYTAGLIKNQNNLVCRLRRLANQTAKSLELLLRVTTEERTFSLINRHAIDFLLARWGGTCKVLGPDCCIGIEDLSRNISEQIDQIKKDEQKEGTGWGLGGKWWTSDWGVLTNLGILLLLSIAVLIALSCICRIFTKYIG
The assay is described as follows: cell-based or functional assay.

The target of assay [5] is T2, Marburg virus Musoke GP on rVSV pseudotype (VSV-MARV Musoke GP) (Marburg virus, Musoke strain, UniProt P35253 19-681).
T2 sequence: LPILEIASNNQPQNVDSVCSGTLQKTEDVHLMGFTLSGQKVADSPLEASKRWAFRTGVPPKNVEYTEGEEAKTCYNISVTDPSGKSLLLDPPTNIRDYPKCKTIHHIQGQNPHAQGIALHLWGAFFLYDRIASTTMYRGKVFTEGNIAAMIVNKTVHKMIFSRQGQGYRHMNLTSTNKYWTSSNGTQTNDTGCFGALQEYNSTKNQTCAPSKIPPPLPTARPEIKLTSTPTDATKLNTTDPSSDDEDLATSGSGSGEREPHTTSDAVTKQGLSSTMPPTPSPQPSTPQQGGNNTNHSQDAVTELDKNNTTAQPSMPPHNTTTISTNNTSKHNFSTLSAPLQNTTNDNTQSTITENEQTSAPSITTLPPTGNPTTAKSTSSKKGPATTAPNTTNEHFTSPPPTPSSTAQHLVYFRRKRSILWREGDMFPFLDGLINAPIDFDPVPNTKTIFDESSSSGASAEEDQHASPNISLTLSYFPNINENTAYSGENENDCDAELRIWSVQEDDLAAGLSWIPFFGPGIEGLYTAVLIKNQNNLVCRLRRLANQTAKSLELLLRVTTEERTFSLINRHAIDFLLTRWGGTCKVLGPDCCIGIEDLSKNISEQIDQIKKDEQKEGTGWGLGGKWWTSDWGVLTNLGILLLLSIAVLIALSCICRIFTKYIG
The assay is described as follows: cell-based or functional assay.

The target in assay [6] is T3, RAVV GP on rVSV pseudotype (VSV-MARV RAVV GP) (Ravn virus, UniProt Q1PDC7 19-681).
T3 sequence: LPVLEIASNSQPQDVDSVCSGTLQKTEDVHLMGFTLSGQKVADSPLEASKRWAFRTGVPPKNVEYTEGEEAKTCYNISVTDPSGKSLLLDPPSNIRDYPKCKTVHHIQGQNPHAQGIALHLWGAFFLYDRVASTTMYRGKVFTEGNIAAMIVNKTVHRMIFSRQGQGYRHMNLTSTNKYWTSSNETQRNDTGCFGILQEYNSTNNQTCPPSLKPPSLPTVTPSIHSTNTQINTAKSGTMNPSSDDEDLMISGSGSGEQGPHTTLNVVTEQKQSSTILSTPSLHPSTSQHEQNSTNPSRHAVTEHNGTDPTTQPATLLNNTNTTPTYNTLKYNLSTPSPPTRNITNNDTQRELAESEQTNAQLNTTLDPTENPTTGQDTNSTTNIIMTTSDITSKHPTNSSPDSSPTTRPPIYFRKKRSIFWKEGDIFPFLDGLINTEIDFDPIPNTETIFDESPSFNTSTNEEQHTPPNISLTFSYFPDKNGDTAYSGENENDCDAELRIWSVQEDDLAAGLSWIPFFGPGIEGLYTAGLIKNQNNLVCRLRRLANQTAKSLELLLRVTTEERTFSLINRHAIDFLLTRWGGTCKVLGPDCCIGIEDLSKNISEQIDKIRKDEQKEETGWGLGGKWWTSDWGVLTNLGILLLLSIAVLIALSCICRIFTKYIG
The assay is described as follows: cell-based or functional assay.

In assay [7] the target is T2, Marburg virus Musoke GP on rVSV …. The assay is described as follows: cell-based or functional assay. The source holds these as a separate data set.

With MR191 (antibody), the figures for the NT50 in assay [1], in assay [2] and in assay [3] were 7 µg/mL, 3.81 µg/mL and 2.77 µg/mL, respectively.

B1: R18 (antibody, V domains shown)
VH: QVQLQESGPGLVKASETLSLTCAVSGASISSYWWNWIRLSPGKGLEWIGEIYGYSGSTSYKSSLKSRVSISRDASKNQFSLKLTSVTAADTAVYYCARDPLNHDAFDFWGRGLRVTVSS
VL: QSALTQPPSVSGSPGQSVTISCAGTSSDIGGYTYVSWYQQHPGKAPKLMIYDVNERPSGVSDRFSGSISGNTASLTISGLQAEDEADYYCSSYAGSKTVLFGGGTRLSVL
B1: the NT50 is 0.04 µg/mL in assay [4], 0.09 µg/mL in assay [5] and 0.18 µg/mL in assay [6].

B2: R83 (antibody, V domains shown)
VH: QVQLQESGPGLVKPSETLSLTCAVSGASISDYWWNWIRQPPGKGLEWIGEIYGYSGSTYYNPSLKSRVTISKDASKKQLSLRLTSVTAADTAIYYCARDPLNQDAFDFWGLGLRVTVSS
VL: QSALTQPPSVSGSPGQSVTISCTGTSSDIGGYTYISWYQQYPGKAPKLMIYDVSKRPSGVSDRFSGSKSGNTASLTVSGLQAEDEADYYCSSYGGRKTLLFGGGTRLTVL
Turning to B2, the NT50 stood at 0.03 µg/mL in assay [4], 0.05 µg/mL in assay [5] and 0.17 µg/mL in assay [6].

B3: R217 (antibody, V domains shown)
VH: QVQLQESGPGLVKPSETLSLTCAVSGASISSNWWNWIRQPPGRGLEWLGEIYGYSGSTSYNPYLKSRVTISKDASRNQISLKLNAVTAADTAVYYCARDPLNQDAFDFWGQGLRVTVSS
VL: QSALTQPPSVSGSPGQSVTISCTGTSSDIGGYDYVSWYQHHPGKAPKLMIYDVNERPAGVSDRFSGSKSGNTASLTISGLQAEDEADYFCSSYAGRKTLLFGGGTRLTVL
For the molecule B3, the “EC50 (read off the curve)” value in assay [7] is roughly 0.3 µg/mL.

B4: R79 (antibody, V domains shown)
VH: EVQLVESGGGLAKPGGSLRLSCAASGFTFNDYWLFWVRQAPGRGLEWISTINRPGSSTFYADSVKGRFTISRENANNALYLQMDSLRPEDTAVYYCARDQGRTVGYLDYWGQGVLVTVSS
VL: QSALTQPRSVSGSPGQSVTISCTGTSSDIGSYSYVSWYQQHPGTAPKLIIYDDSERPSGVSDRFSGSKSGNTASLTISGLQAEDEADYYCSSYAGSNTWVFGGGTRLTVL
As to B4, the NT50 in assay [4] came out at 0.21 µg/mL; in assay [5] it was 0.17 µg/mL; in assay [6], 0.45 µg/mL.

B5: R80 (antibody, V domains shown)
VH: EVQLVESGGGLAKPGGSLRLSCAASGFTFNDYWLFWVRQAPGRGLEWISTINRPGSSTFYADSVKGRFTISRENANNALYLQMDSLRPEDTAVYYCARDQGRTVGYLDYWGQGVLVTVSS
VL: QSALTQPRSVSGSPGQSVTISCTGTSSDIGSYSYVSWYQQHPGTAPKLIIYDDSERPSGVSDRFSGSKSGNTASLTISGLQAEDEADYYCSSYAGSNTWVFGGGTRLTVL
Consider B5, for which the NT50 in assay [4] was determined as 0.26 µg/mL; in assay [5], 0.21 µg/mL; in assay [6] it was 0.3 µg/mL.
